Data from publication PMC8033513 (2021).

B1: chicken netrin‐2L (netrin‐2‐like) (ligand)
chain: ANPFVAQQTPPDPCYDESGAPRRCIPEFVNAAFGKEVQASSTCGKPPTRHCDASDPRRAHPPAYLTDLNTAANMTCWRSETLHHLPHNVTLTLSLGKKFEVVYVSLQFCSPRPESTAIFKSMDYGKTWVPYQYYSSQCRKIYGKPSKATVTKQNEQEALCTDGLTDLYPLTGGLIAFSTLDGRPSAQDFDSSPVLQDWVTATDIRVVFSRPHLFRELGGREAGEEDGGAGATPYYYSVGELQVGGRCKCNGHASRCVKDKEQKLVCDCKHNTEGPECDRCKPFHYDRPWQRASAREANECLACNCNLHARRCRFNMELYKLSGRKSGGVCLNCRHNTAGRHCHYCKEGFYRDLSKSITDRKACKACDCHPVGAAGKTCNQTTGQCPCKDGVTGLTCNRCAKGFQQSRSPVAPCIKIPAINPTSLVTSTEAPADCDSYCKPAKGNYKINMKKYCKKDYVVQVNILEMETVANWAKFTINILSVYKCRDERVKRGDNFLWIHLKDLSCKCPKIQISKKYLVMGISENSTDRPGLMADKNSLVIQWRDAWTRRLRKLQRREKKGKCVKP
B2: extra‐cellular domain (ECD) of human UNC5H3 (domain or fragment)
chain: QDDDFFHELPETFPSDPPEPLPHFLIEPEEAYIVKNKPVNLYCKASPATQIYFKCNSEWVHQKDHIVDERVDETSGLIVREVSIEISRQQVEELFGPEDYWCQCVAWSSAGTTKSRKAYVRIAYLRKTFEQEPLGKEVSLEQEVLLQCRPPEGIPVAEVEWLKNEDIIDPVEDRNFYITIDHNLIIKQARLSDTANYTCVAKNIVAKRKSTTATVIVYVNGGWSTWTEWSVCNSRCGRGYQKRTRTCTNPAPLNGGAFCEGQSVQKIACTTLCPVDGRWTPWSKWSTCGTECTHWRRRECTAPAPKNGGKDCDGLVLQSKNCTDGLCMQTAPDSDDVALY
B3: extra‐cellular domain (ECD) of human UNC5H1 (domain or fragment)
chain: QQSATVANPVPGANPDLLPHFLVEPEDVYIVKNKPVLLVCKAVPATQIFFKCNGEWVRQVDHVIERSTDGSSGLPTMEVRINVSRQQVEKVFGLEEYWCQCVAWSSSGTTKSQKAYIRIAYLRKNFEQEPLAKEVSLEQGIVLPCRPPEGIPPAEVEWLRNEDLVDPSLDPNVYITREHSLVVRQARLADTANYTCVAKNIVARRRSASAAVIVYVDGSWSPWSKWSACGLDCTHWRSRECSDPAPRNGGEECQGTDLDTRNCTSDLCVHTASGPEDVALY
B4: extra‐cellular domain (ECD) of mouse DCC (Fc fusion)
chain: HLQVTGFQIKPFTSLHFVSEPSDAVTMRGGNVLLNCSAESDRGVPVIKWKKDGLILALGMDDRKQQLPNGSLLIQNILHSRHHKPDEGLYQCEASLADSGSIISRTAKVTVAGPLRFLSQTESITAFMGDTVLLKCEVIGEPMPTIHWQKNQQDLNPLPGDSRVVVLPSGALQISRLQPGDSGVYRCSARNPASIRTGNEAEVRILSDPGLHRQLYFLQRPSNVIAIEGKDAVLECCVSGYPPPSFTWLRGEEVIQLRSKKYSLLGGSNLLISNVTDDDSGTYTCVVTYKNENISASAELTVLVPPWFLNHPSNLYAYESMDIEFECAVSGKPVPTVNWMKNGDVVIPSDYFQIVGGSNLRILGVVKSDEGFYQCVAENEAGNAQSSAQLIVPKPAIPSSSILPSAPRDVLPVLVSSRFVRLSWRPPAEAKGNIQTFTVFFSREGDNRERALNTTQPGSLQLTVGNLKPEAMYTFRVVAYNEWGPGESSQPIKVATQPELQVPGPVENLHAVSTSPTSILITWEPPAYANGPVQGYRLFCTEVSTGKEQNIEVDGLSYKLEGLKKFTEYTLRFLAYNRYGPGVSTDDITVVTLSDVPSAPPQNISLEVVNSRSIKVSWLPPPSGTQNGFITGYKIRHRKTTRRGEMETLEPNNLWYLFTGLEKGSQYSFQVSAMTVNGTGPPSNWYTAETPENDLDESQVPDQPSSLHVRPQTNCIIMSWTPPLNPNIVVRGYIIGYGVGSPYAETVRVDSKQRYYSIERLESSSHYVISLKAFNNAGEGVPLYESATTRSITDPTDPVDYYPLLDDFPTSGPDVSTPMLPPVGVQAVALTHEAVRVSWADNSVPKNQKTSDVRLYTVRWRTSFSASAKYKSEDTTSLSYTATGLKPNTMYEFSVMVTKNRRSSTWSMTAHATTYEAAPTSAPKDLTVITREGKPRAVIVSWQPPLEANGKITAYILFYTLDKNIPIDDWIMETISGDRLTHQIMDLSLDTMYYFRIQARNVKGVGPLSDPILFRTLKVEHPDKMANDQGRHGDGGYWPVDTNLIDRSTLNEPPIGQMHPPHGSVTPQKNSN
B5: extra‐cellular domain (ECD) of rat UNC5H2 (Fc fusion)
chain: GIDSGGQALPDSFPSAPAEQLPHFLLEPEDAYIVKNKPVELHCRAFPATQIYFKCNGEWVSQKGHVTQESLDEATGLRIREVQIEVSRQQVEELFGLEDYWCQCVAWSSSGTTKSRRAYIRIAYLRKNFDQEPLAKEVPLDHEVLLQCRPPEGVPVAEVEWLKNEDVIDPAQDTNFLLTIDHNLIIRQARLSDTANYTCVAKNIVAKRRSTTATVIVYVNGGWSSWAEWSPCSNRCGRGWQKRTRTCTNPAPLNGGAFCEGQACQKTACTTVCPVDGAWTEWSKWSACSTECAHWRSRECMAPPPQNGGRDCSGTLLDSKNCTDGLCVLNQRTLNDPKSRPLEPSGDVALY
B6: extra‐cellular domain (ECD) of mouse Neogenin (Fc fusion)
chain: RPASGAAATKSGSPPQSAGASVRTFTPFYFLVEPVDTLSVRGSSVILNCSAYSEPSPNIEWKKDGTFLNLESDDRRQLLPDGSLFISNVVHSKHNKPDEGFYQCVATVDNLGTIVSRTAKLTVAGLPRFTSQPEPSSVYVGNSAILNCEVNADLVPFVRWEQNRQPLLLDDRIVKLPSGTLVISNATEGDGGLYRCIVESGGPPKFSDEAELKVLQDPEEIVDLVFLMRPSSMMKVTGQSAVLPCVVSGLPAPVVRWMKNEEVLDTESSGRLVLLAGGCLEISDVTEDDAGTYFCIADNGNKTVEAQAELTVQVPPGFLKQPANIYAHESMDIVFECEVTGKPTPTVKWVKNGDVVIPSDYFKIVKEHNLQVLGLVKSDEGFYQCIAENDVGNAQAGAQLIILEHDVAIPTLPPTSLTSATTDHLAPATTGPLPSAPRDVVASLVSTRFIKLTWRTPASDPHGDNLTYSVFYTKEGVARERVENTSQPGEMQVTIQNLMPATVYIFKVMAQNKHGSGESSAPLRVETQPEVQLPGPAPNIRAYATSPTSITVTWETPLSGNGEIQNYKLYYMEKGTDKEQDIDVSSHSYTINGLKKYTEYSFRVVAYNKHGPGVSTQDVAVRTLSDVPSAAPQNLSLEVRNSKSIVIHWQPPSSTTQNGQITGYKIRYRKASRKSDVTETLVTGTQLSQLIEGLDRGTEYNFRVAALTVNGTGPATDWLSAETFESDLDETRVPEVPSSLHVRPLVTSIVVSWTPPENQNIVVRGYAIGYGIGSPHAQTIKVDYKQRYYTIENLDPSSHYVITLKAFNNVGEGIPLYESAVTRPHTDTSEVDLFVINAPYTPVPDPTPMMPPVGVQASILSHDTIRITWADNSLPKHQKITDSRYYTVRWKTNIPANTKYKNANATTLSYLVTGLKPNTLYEFSVMVTKGRRSSTWSMTAHGATFELVPTSPPKDVTVVSKEGKPRTIIVNWQPPSEANGKITGYIIYYSTDVNAEIHDWVIEPVVGNRLTHQIQELTLDTPYYFKIQARNSKGMGPMSEAVQFRTPKADSSDKMPNDQALGSAGKGSRLPDLGSDYKPPMSGSNSPHGSPTSPLDSNML

How the values were obtained:
Assay in all cases: BLI
[1] = target: B6
[2] = target: B3
[3] = target: B2
[4] = target: B5
[5] = target: B4
human netrin‐1 = human netrin‐1 (human, UniProt O95631 25-604)

Binder | Kd (human netrin‐1) | also measured
B1 | – | Kd [1]: 51.7 nM; Kd [2]: 106 nM; Kd [3]: 4.3 nM; Kd [4]: 8.8 nM; Kd [5]: 31 nM
B2 | 5.4 nM | –
B3 | 12.2 nM | –
B4 | 6.3 nM | –
B5 | 6.9 nM | –
B6 | 7.8 nM | –
